# Experimental data reported in patent US20250334575A1 (UNIVERSITY OF VERMONT AND STATE AGRICULTURE COLLEGE, published 2025).
# B1: fibrinogen (other, human)
# chain 1: ADSGEGDFLAEGGGVRGPRVVERHQSACKDSDWPFCSDEDWNYKCPSGCRMKGLIDEVNQDFTNRINKLKNSLFEYQKNNKDSHSLTTNIMEILRGDFSSANNRDNTYNRVSEDLRSRIEVLKRKVIEKVQHIQLLQKNVRAQLVDMKRLEVDIDIKIRSCRGSCSRALAREVDLKDYEDQQKQLEQVIAKDLLPSRDRQHLPLIKMKPVPDLVPGNFKSQLQKVPPEWKALTDMPQMRMELERPGGNEITRGGSTSYGTGSETESPRNPSSAGSWNSGSSGPGSTGNRNPGSSGTGGTATWKPGSSGPGSTGSWNSGSSGTGSTGNQNPGSPRPGSTGTWNPGSSERGSAGHWTSESSVSGSTGQWHSESGSFRPDSPGSGNARPNNPDWGTFEEVSGNVSPGTRREYHTEKLVTSKGDKELRTGKEKVTSGSTTTTRRSCSKTVTKTVIGPDGHKEVTKEVVTSEDGSDCPEAMDLGTLSGIGTLDGFRHRHPDEAAFFDTASTGKTFPGFFSPMLGEFVSETESRGSESGIFTNTKESSSHHPGIAEFPSRGKSSSYSKQFTSSTSYNRGDSTFESKSYKMADEAGSEADHEGTHSTKRGHAKSRPVRGIHTSPLGKPSLSP
# chain 2: QGVNDNEEGFFSARGHRPLDKKREEAPSLRPAPPPISGGGYRARPAKAAATQKKVERKAPDAGGCLHADPDLGVLCPTGCQLQEALLQQERPIRNSVDELNNNVEAVSQTSSSSFQYMYLLKDLWQKRQKQVKDNENVVNEYSSELEKHQLYIDETVNSNIPTNLRVLRSILENLRSKIQKLESDVSAQMEYCRTPCTVSCNIPVVSGKECEEIIRKGGETSEMYLIQPDSSVKPYRVYCDMNTENGGWTVIQNRQDGSVDFGRKWDPYKQGFGNVATNTDGKNYCGLPGEYWLGNDKISQLTRMGPTELLIEMEDWKGDKVKAHYGGFTVQNEANKYQISVNKYRGTAGNALMDGASQLMGENRTMTIHNGMFFSTYDRDNDGWLTSDPRKQCSKEDGGGWWYNRCHAANPNGRYYWGGQYTWDMAKHGTDDGVVWMNWKGSWYSMRKMSMKIRPFFPQQ
# chain 3: YVATRDNCCILDERFGSYCPTTCGIADFLSTYQTKVDKDLQSLEDILHQVENKTSEVKQLIKAIQLTYNPDESSKPNMIDAATLKSRKMLEEIMKYEASILTHDSSIRYLQEIYNSNNQKIVNLKEKVAQLEAQCQEPCKDTVQIHDITGKDCQDIANKGAKQSGLYFIKPLKANQQFLVYCEIDGSGNGWTVFQKRLDGSVDFKKNWIQYKEGFGHLSPTGTTEFWLGNEKIHLISTQSAIPYALRVELEDWNGRTSTADYAMFKVGPEADKYRLTYAYFAGGDAGDAFDGFDFGDDPSDKFFTSHNGMQFSTWDNDNDKFEGNCAEQDGSGWWMNKCHAGHLNGVYYQGGTYSKASTPNGYDNGIIWATWKTRWYSMKKTTMKIIPFNRLTIGEGQQHHLGGAKQAGDV
# B2: coagulation Factor XIII (enzyme, human, UniProt P00488 2-732, looked up)
# chain: SETSRTAFGGRRAVPPNNSNAAEDDLPTVELQGVVPRGVNLQEFLNVTSVHLFKERWDTNKVDHHTDKYENNKLIVRRGQSFYVQIDFSRPYDPRRDLFRVEYVIGRYPQENKGTYIPVPIVSELQSGKWGAKIVMREDRSVRLSIQSSPKCIVGKFRMYVAVWTPYGVLRTSRNPETDTYILFNPWCEDDAVYLDNEKEREEYVLNDIGVIFYGEVNDIKTRSWSYGQFEDGILDTCLYVMDRAQMDLSGRGNPIKVSRVGSAMVNAKDDEGVLVGSWDNIYAYGVPPSAWTGSVDILLEYRSSENPVRYGQCWVFAGVFNTFLRCLGIPARIVTNYFSAHDNDANLQMDIFLEEDGNVNSKLTKDSVWNYHCWNEAWMTRPDLPVGFGGWQAVDSTPQENSDGMYRCGPASVQAIKHGHVCFQFDAPFVFAEVNSDLIYITAKKDGTHVVENVDATHIGKLIVTKQIGGDGMMDITDTYKFQEGQEEERLALETALMYGAKKPLNTEGVMKSRSNVDMDFEVENAVLGKDFKLSITFRNNSHNRYTITAYLSANITFYTGVPKAEFKKETFDVTLEPLSFKKEAVLIQAGEYMGQLLEQASLHFFVTARINETRDVLAKQKSTVLTIPEIIIKVRGTQVVGSDMTVTVEFTNPLKETLRNVWVHLDGPGVTRPMKKMFREIRPNSTVQWEEVCRPWVSGHRKLIASMSSDSLRHVYGELDVQIQRRPSM
# Experiments:
# [1] = target: FcγRIIa (low affinity immunoglobulin gamma Fc region receptor II-a) (human) (UniProt P12318); experiment: co-immunoprecipitation with FcγRIIa from activated platelets, mass spectrometry of the excised band
# Sequence of FcγRIIa (low affinity immunoglobulin gamma Fc region receptor II-a) (human) (P12318 34-317 limits assumed, form in doubt): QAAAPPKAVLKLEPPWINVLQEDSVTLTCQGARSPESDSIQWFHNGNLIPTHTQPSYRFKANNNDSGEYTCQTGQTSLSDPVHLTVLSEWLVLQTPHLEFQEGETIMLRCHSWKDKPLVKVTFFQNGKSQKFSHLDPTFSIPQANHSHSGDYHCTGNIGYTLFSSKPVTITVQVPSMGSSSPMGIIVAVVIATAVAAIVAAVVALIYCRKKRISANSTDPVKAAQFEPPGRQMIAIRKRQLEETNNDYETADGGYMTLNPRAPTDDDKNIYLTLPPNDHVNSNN
# [2] = target: FcγRIIa (low affinity immunoglobulin gamma Fc region receptor II-a) (human) (UniProt P12318); experiment: cell-based or functional assay
# activated GP IIb-IIIa = activated GP IIb-IIIa (human, UniProt P08514 32-1039; P05106 27-788); experiment: cell-based or functional assay
# Sequence of activated GP IIb-IIIa (P08514 32-1039, chain 1 of 2): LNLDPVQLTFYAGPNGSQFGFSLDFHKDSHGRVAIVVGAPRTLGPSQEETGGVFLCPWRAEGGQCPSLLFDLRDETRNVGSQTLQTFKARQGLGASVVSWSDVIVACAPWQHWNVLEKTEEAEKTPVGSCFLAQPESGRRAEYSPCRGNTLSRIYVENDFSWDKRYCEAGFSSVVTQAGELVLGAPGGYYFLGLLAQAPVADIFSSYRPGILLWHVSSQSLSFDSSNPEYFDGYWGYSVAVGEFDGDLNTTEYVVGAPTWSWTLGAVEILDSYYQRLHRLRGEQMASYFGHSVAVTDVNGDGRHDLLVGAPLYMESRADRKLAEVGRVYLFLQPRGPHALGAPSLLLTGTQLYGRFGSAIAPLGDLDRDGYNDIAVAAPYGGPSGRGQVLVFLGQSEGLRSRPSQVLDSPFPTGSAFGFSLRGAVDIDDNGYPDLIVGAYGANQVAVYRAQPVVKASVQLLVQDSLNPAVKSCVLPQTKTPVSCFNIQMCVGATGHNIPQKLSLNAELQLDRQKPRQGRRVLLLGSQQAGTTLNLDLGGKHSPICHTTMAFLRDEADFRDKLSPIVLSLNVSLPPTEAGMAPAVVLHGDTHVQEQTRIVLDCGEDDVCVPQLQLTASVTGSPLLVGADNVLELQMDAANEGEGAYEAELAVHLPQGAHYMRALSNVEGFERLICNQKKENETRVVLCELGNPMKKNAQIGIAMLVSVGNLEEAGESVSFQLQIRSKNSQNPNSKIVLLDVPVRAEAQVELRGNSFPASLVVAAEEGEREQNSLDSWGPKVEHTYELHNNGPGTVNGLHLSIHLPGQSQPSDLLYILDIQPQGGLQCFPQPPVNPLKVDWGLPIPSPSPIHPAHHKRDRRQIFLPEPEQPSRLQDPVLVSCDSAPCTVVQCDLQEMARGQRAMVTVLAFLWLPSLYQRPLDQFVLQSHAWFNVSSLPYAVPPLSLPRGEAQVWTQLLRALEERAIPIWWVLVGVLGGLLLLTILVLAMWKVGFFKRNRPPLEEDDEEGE
# Sequence of activated GP IIb-IIIa (P05106 27-788, chain 2 of 2): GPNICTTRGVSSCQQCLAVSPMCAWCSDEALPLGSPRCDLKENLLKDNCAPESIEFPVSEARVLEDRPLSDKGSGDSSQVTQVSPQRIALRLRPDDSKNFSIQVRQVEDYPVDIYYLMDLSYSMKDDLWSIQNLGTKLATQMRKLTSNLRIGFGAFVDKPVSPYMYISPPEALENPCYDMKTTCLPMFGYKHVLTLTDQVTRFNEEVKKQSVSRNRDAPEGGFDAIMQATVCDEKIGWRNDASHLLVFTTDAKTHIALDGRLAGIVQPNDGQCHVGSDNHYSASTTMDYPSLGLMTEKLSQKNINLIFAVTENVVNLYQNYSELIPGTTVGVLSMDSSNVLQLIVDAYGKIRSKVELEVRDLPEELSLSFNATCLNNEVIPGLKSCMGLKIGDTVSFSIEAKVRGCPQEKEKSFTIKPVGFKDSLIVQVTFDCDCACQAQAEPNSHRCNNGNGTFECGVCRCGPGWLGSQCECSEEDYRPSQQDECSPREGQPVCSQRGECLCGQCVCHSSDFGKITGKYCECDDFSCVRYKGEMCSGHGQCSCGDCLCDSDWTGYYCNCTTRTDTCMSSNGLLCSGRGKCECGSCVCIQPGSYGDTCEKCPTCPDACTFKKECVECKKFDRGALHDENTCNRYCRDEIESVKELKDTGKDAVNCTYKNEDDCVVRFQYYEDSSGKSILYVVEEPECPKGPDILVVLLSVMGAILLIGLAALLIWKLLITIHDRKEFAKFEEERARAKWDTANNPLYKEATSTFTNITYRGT
Molecule,share of the protein content of the 90 kDa band co-immunoprecipitated with FcγRIIa [1] [%],share of the protein content of the 55 kDa band co-immunoprecipitated with FcγRIIa [1] [%],share of the protein content of the 75 kDa band co-immunoprecipitated with FcγRIIa [1] [%],further results
filamin,1,,,
SRC kinase Lyn (from UniProt P07948 2-512) (enzyme),,1,,
gelsolin (from UniProt P06396 1-731),6,,,
actin,,3,1,
coagulation Factor V (from UniProt P12259 29-2224),,,4,
nexilin (from UniProt Q0ZGT2 1-675),,,3,
B1,80,33,24,fold induction of ADP-induced activation of platelets (surface expression of P-selectin) after addition of fibrinogen [2]: 1.5 fold; fold induction of ADP-induced activation of platelets by added fibrinogen after pretreatment with IV.3 (100 µg/ml) [2]: 0.9 fold; fold induction of ADP-induced activation of platelets by added fibrinogen in the presence of tirofiban (0.5 µg/ml) (activated GP IIb-IIIa): 1.2 fold
B2,1,,38,fold induction of ADP-induced activation of platelets by added Factor XIII in the presence of tirofiban (0.5 µg/ml) (activated GP IIb-IIIa): 0.8 fold
